Publication PMC2954905, “Controlling Cellular P-TEFb Activity by the HIV-1 Transcriptional Transactivator Tat”

B1: 5'HPdm+pm (in vitro) (structured_RNA)
RNA: GGAUGUGAGGGCCUAGACCGACCGACAUCUGUCACCCCAUUGAUCGCCAGGGUUGAUUCGGCUCUAGACCGACGCUAGGCGGGUGUCCCCUUCCUCCCUCACCGCUCCAUG

Target: HEXIM1 (UniProt O94992 1-359)
Test: EMSA; EMSA: 50 mM Tris-HCl pH 8.0, 100 mM NaCl, 14.4 mM 2-mercaptoethanol, 20 ng/ul E. coli tRNA, RT; ~2 fmol RNA; 4-5% native PAGE in 0.5x TBE, 2.5% glycerol
Details: protein: recombinant, hairpin

Chain of HEXIM1 (O94992 whole entry): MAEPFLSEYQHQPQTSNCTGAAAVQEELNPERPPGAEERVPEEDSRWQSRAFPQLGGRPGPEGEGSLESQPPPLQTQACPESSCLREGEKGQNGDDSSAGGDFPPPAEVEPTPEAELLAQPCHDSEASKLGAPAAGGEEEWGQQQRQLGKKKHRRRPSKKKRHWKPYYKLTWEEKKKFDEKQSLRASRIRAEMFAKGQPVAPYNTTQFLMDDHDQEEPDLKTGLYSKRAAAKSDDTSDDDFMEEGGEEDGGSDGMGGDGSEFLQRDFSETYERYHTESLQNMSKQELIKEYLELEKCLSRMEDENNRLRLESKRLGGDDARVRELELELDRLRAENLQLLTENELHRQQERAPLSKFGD

Row | Binder | binding result (label: 32P internal) | binding result (label: 32P, GGAA tetraloop)
1 | B1 | no binding | –
2 | GGGCCACUGACCCCAUUGAUCGGAAGAUCUGGCUGGCUACAGUGGAUC (structured_RNA) [DHBS] | – | binds
